From article PMC4262935
Read-outs that look alike come from different tables or passages of the source.

Key:
[1] = target: actin in thin filaments (mouse (endogenous in C57BL/6 ventricular myofibrils)) (UniProt P68033)
[2] = target: actin in thin filaments (mouse (endogenous in C57BL/6 ventricular myofibrils)) (UniProt P68033); remark: listed apart in the source

k3 (rate of dissociation of XBs from thin filaments, with ATP) [1]: 0.061 s⁻¹
k3 (rate of dissociation of XBs from thin filaments, with ATP) [2]: 0.0492 s⁻¹
Substance: myosin cross-bridge (from UniProt Q02566 1-1938; P09542 1-204; P51667 1-166) (complex)
